# Measured values as given in patent US20200247894A1 (Regeneron, published 2020).
# T1: human IL2Rγ (endogenously expressed on cells) (human, UniProt P31785 23-369)
# T1 sequence (looked up): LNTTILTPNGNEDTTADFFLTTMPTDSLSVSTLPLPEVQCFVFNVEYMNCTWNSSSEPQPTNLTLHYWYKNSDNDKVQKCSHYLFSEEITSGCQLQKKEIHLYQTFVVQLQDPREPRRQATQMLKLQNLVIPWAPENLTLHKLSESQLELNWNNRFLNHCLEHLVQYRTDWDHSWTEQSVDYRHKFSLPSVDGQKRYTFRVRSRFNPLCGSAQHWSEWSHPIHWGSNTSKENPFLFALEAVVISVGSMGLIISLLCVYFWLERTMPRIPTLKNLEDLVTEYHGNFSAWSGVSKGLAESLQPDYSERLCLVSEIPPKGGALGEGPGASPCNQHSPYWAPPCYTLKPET
# T2: D1 domain of human IL-2Rγ extracellular domain expressed with a C-terminal myc-myc-hexahistidine tag (human)
# T2 construct: also called human IL2Rγ domain 1
# T2 chain: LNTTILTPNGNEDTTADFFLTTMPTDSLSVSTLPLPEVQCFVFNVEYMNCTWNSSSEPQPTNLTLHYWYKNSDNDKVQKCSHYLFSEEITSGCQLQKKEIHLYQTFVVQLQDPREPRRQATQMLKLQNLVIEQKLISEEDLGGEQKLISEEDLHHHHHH
# T3: D2 domain of human IL2Rγ extracellular domain expressed with a C-terminal myc-myc-hexahistidine tag (human)
# T3 construct: also called human IL2Rγ domain 2
# T3 chain: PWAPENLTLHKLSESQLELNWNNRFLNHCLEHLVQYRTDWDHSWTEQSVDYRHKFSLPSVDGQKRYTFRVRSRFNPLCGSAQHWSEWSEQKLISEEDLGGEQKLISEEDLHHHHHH
# B1: H4H12859P (antibody, human IgG4 S228P, kappa, V domains shown)
# VH: QVQLVQSGAEVKKPGASVRVSCKASGYTFTDYDIHWVRQAPGHGLEWMGWINPNSGGTNYAQKFQGRVTMTRDTSISTVYMDLSRLRSDDTAVYYCARADYSSSYYYYGMDVWGQGTTVTVSS
# VL: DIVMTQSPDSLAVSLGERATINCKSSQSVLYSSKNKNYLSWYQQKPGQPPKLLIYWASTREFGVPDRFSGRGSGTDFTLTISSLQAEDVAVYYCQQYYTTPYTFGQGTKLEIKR
# notes: human IgG4
# B2: H4H12874P (antibody, human IgG4 S228P, kappa, V domains shown)
# VH: QVQLVESGGGVVQPGRSLRLSCAASGFNFRNFGMHWVRQAPGKGLEWVAGILYDGSSKYYADSVKDRFTISRDNSKNTLFLQMNSLRAEDTAMYYCAKEEDTAMVPFDSWGPGTLVTVSS
# VL: DIQLTQSPSFLSASVGDRVTITCWASQGISSYLAWYQQKPGKAPTLLIYAASTLQSGVPSRFSGSGSGTEFTLTISSLQPEDFASYYCQQLKSYPLTFGGGTKVEIKR
# notes: human IgG4
# B3: H4H12863P (antibody, human IgG4 S228P, kappa, V domains shown)
# VH: QVQLVESGGGVVQPGRSLRLSCTASGFTFRSYDMYWVRQAPGKGLEWVSVITYDGNNKYYADSVKGRFTISRDNSKNTLFLQMSSLRPEDTAVYYCAKRGLIWVGESFDYWGQGTLVTVSS
# VL: DIQMTQSPSTLSASVGDRVTITCRASQSINSWLAWYQQKPGKAPNLLIYKASSLESGVPSRFSGSGSGTEFTLTISSLQPDDFATYYCQQYKSYSWTFGQGTKVEIKR
# notes: human IgG4
# B4: H4H12871P (antibody, human IgG4 S228P, kappa, V domains shown)
# VH: QVQLQESGPGLVKPSQTLSLTCTVSGGSITSGGYYWSWIRQYPGQGLEWIGYIYYSGKTYYNPSFTSRITISVDTSKKQFSLKMSSVTAADTAVYYCARAGFTSSNGWFDPWGQGTLVTVSS
# VL: DIQMTQSPSSLSASVGDRVTITCRASQNIRSYLNWYQQKPGKAPKLLIYSASSLQSGVPSRFSGSGSGTDFTLTISSLQPEDFPTYYCQQTYSSPWTFGPGTKVEIKR
# notes: human IgG4; also called REGN9434
# B5: H4H12913P2 (antibody, human IgG4 S228P, kappa, V domains shown)
# VH: EVQLVESGGGVVRPGGSLRLSCAASGFTFDDYGMSWVRQAPGKGLEWISSINRNGGSADYADSVKGRFTISRDNAKNSLFLQMSSLRAEDTALYHCASGEFRFDYWGQGTLVTVSS
# VL: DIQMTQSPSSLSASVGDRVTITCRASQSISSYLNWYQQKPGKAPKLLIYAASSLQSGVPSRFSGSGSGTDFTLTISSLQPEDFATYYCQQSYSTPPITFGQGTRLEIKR
# notes: human IgG4
# B6: H4H12927P2 (antibody, human IgG4 S228P, kappa, V domains shown)
# VH: EVQLVESGGGVVRPGGSLRLSCATSGFTFDDYGMSWVRQVPGKGLEWVSSVNRNGGTTDYADSVKGRFTISRDNAKRSLFLQMNSLRAEDTALYHCATGELFFDYWGQGTLVTVSS
# VL: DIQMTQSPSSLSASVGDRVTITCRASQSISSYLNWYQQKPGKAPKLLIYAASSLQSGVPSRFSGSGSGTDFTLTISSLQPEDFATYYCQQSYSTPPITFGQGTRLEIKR
# notes: human IgG4
# B7: H4H12890P (antibody, human IgG4 S228P, kappa, V domains shown)
# VH: EVQLVESGGGLVQPGGSLRLSCAASGFTFNNYAMHWVRQAPGKGLEYVSSISSSGGSTYYEDSVKGRFTISRDNSKNTLYLQMGSLRAEDMAVYYCARSFYGSGTYYDTFDMWGQGTMVTVSS
# VL: DIQMTQSPSSLSASIGDRVTITCRASQSISRYLNWYQQKPGKAPKLLIYAASSLQSGVPSRFSASGSGTDFTLTISSLQPEDFATYYCQQSYSTPFTFGQGTKLEIKR
# notes: human IgG4
# Tests used:
# [1] = target: T1, human IL2Rγ (endogenously expressed on …); assay: cell-based or functional assay
# [2] = target: T2, D1 domain of human IL-2Rγ extracellular …; assay: SPR, mAb captured on anti-hFc, 25 C
# Procedure: (§1) Equilibrium dissociation constants (KD values) for IL-2Rγ binding to purified anti-IL2Rγ monoclonal antibodies were determined using a Biacore 4000 instrument equipped with a real-time surface plasmon resonance biosensor. All binding studies were performed in 10 mM HEPES, 150 mM NaCl, 3 mM EDTA, and 0.05% v/v Surfactant Tween-20, pH 7.4 (HBS-ET) running buffer at 25° C. and 37° C. The Biacore sensor surface was first derivatized by amine coupling with a monoclonal mouse anti-human Fc antibody (GE, # BR-1008-39) to capture anti-IL2Rγ monoclonal antibodies.
# (§2) The dissociation of monoclonal antibody bound IL2Rγ reagents were monitored for 8-10 minutes in HBS-ET running buffer. Kinetic association (kₐ) and dissociation (kd) rate constants were determined by fitting the real-time sensorgrams to a 1:1 binding model using Scrubber 2.0c curve fitting software. Binding dissociation equilibrium constants (KD) and dissociative half-lives (t_{1/2}) were calculated from the kinetic rate constants as: […]
# [3] = target: T2, D1 domain of human IL-2Rγ extracellular …; assay: SPR, mAb captured on anti-hFc, 37 C
# Procedure: as §1, §2
# [4] = target: T3, D2 domain of human IL2Rγ extracellular …; assay: SPR, mAb captured on anti-hFc, 25 C
# Procedure: as §1
# [5] = target: T3, D2 domain of human IL2Rγ extracellular …; assay: SPR, mAb captured on anti-hFc, 37 C
# Procedure: as §1
# [6] = target: T3, D2 domain of human IL2Rγ extracellular …; assay: SPR, mAb captured on anti-hFc, 25 C; 25 C
# Procedure: as §1
Binder,Max Inhibition (%); IL-2 30 pM; NK92/hIL7R/STAT3-luc [1],100 nM Ag Bound [2],100 nM Ag Bound [3],100 nM Ag Bound [4],100 nM Ag Bound [5],IC50; IL-4 250 pM; Ramos.2G6.4C10/STAT3-luc [1],IC50; IL-7 50 pM; NK92/hIL7R/STAT3-luc [1],IC50; IL-9 20 pM; NK92/hIL7R/STAT3-luc [1],Max Inhibition (%); IL-4 250 pM; Ramos.2G6.4C10/STAT3-luc [1],Max Inhibition (%); IL-7 50 pM; NK92/hIL7R/STAT3-luc [1],Max Inhibition (%); IL-9 20 pM; NK92/hIL7R/STAT3-luc [1],Max Inhibition (%); IL-15 60 pM; NK92/hIL7R/STAT3-luc [1],binding result [2],also measured
B1,29%,0 RU,0 RU,-1 RU,-1 RU,–,–,–,–,–,–,–,–,binding result [3]: no binding (tested: 100 nM)
B2,26%,0 RU,1 RU,–,–,> 1e-07 M,4.1e-08 M,> 1e-07 M,70%,93%,50%,55%,–,IC50; IL-15 60 pM; NK92/hIL7R/STAT3-luc [1]: > 1e-07 M; binding result [3]: no binding (tested: 100 nM); Kd [6]: 214 nM; koff [6]: 0.0435 s⁻¹; kon [6]: 203000 M⁻¹ s⁻¹; t½ [6]: 0.3 min
B3,48%,55 RU,39 RU,0 RU,-1 RU,3.6e-10 M,1.5e-09 M,4.7e-10 M,70%,42%,38%,30%,–,IC50; IL-2 30 pM; NK92/hIL7R/STAT3-luc [1]: 4.3e-10 M; IC50; IL-21 5 pM; NK92/hIL7R/STAT3-luc [1]: > 1e-07 M; Max Inhibition (%); IL-21 5 pM; NK92/hIL7R/STAT3-luc [1]: 28%; Kd [2]: 4.74 nM; koff [2]: 0.000538 s⁻¹; kon [2]: 114000 M⁻¹ s⁻¹; t½ [2]: 21 min; Kd [3]: 8.69 nM; koff [3]: 0.00221 s⁻¹; kon [3]: 254000 M⁻¹ s⁻¹; t½ [3]: 5 min
B4,–,47 RU,33 RU,0 RU,-1 RU,–,8.2e-10 M,–,31%,36%,–,–,–,Kd [2]: 11.8 nM; koff [2]: 0.00111 s⁻¹; kon [2]: 94000 M⁻¹ s⁻¹; t½ [2]: 10 min; Kd [3]: 21.2 nM; koff [3]: 0.0036 s⁻¹; kon [3]: 170000 M⁻¹ s⁻¹; t½ [3]: 3.2 min
B5,24%,0 RU,1 RU,37 RU,16 RU,> 1e-07 M,> 1e-07 M,> 1e-07 M,55%,77%,57%,58%,no binding (tested: 100 nM),IC50; IL-15 60 pM; NK92/hIL7R/STAT3-luc [1]: > 1e-07 M; Kd [4]: 2.76 nM; koff [4]: 0.000708 s⁻¹; kon [4]: 256000 M⁻¹ s⁻¹; t½ [4]: 16 min; Kd [5]: 12.7 nM; koff [5]: 0.00337 s⁻¹; kon [5]: 266000 M⁻¹ s⁻¹; t½ [5]: 3.4 min
B6,18%,0 RU,1 RU,–,–,–,> 1e-07 M,–,33%,46%,–,34%,no binding (tested: 100 nM),Kd [6]: 69.9 nM; koff [6]: 0.0166 s⁻¹; kon [6]: 238000 M⁻¹ s⁻¹; t½ [6]: 0.7 min
B7,15%,1 RU,2 RU,-1 RU,1 RU,> 1e-07 M,> 1e-07 M,–,54%,66%,36%,35%,no binding (tested: 100 nM),–
